The text below walks through data of US6403769 (US Dept. of Health and Human Services, dated 2002).

In experiment [1] the target is T1, D2/3-HFc fusion protein (mouse, UniProt P21803 22-262; P01868 98-324 = IgG part, limits assumed).
T1 construct: domain: Ig-like effector domains D2 and D3;domain: hinge, CH2 and CH3 domains; Secreted by NIH 3T3 transfectants as a disulfide-linked dimer (80 kd reduced, 160 kd nonreduced); Cloned into HFc-pUC 18 without the heterologous signal peptide; also called KGFR-HFc (D2/3)
Kind of experiment: 50% displacement of 125I-aFGF by unlabeled aFGF, fusion protein captured on Gamma Bind G (Scatchard analysis). As to the method: (§1) Ey et al., Immunochem. 15: 429 (1978). […] Bovine brain aFGF was obtained from Upstate Biotechnology, Inc. (Lake Placid, N.Y.). ^125I-aFGF was prepared as described by Friesel et al., J. Biol. Chem. 261: 7581 (1986).
(§2) Bound ligand recovered from the pellets was counted in a Beckman gamma counter. Specific binding was defined as the difference between binding in the absence or presence of excess unlabeled ligand.
(In general: Displacement assays read how much labelled ligand stays bound in the presence of the test substance.)

Experiment [2] concerns the target T2, D2-HFc fusion protein (mouse, UniProt P21803 22-156; P01868 98-324 = IgG part, limits assumed).
T2 construct: domain: Ig-like effector domain D2;domain: hinge, CH2 and CH3 domains; Disulfide-linked dimer (55 kd reduced, 110 kd nonreduced); also called KGFR-HFc (D2)
The description is as above. The method, then: as §1, §2

The target of experiment [3] is T3, immunoglobulin HFc (mouse, UniProt P01868 98-324 = IgG part).
T3 construct: domain: hinge, CH2 and CH3 domains; Control without a nonantibody portion; also called the HFc portion of IgG; control immunoglobulin HFc
Nature of the experiment: ELISA-like assay, 10 ng PDGF BB immobilized. As to the method: After a two hour incubation, wells were washed, and alkaline phosphatase substrate was added to the wells in 100 mM sodium bicarbonate (pH 9.8)-1 mM magnesium chloride. After another incubation, the presence of the product of the chromogenic substrate was measured at 405 nm using an ELISA reader.

The target in experiment [4] is T4, β PDGFR (UniProt P09619 33-1106, limits assumed).
T4 construct: also called β PDGF receptor
T4 sequence (P09619 33-1106 limits assumed): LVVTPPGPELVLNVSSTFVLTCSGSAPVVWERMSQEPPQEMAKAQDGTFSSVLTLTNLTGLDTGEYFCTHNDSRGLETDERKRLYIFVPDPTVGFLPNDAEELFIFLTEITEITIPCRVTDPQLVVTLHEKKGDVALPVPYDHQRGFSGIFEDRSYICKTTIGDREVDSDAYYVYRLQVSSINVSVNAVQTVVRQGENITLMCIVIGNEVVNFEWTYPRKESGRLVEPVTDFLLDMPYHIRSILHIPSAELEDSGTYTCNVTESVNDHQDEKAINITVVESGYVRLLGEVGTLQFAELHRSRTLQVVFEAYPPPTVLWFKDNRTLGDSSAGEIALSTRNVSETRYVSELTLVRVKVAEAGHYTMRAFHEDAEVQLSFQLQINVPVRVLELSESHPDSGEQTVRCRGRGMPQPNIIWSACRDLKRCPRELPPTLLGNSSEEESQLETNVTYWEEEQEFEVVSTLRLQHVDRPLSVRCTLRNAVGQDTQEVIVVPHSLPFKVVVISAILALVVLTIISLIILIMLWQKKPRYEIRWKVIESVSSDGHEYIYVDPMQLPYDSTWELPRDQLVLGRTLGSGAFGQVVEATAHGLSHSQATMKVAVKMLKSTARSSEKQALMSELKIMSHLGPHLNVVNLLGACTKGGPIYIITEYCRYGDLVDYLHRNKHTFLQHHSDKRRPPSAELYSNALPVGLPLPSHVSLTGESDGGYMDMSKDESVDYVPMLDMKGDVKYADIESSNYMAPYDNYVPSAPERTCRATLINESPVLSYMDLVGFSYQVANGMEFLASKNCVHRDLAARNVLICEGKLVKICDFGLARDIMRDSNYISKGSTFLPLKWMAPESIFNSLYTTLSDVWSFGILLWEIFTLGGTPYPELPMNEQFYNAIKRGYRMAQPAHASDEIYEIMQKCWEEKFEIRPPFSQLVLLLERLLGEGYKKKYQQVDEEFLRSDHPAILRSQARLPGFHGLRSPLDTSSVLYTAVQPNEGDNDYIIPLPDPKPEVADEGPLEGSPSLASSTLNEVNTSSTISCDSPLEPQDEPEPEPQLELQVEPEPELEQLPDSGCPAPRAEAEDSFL
Nature of the experiment: Scatchard analysis.

Experiment [5] deals with T5, α PDGFR (UniProt P16234 24-1089, limits assumed).
T5 construct: also called α PDGF receptor
T5 sequence (P16234 24-1089 limits assumed): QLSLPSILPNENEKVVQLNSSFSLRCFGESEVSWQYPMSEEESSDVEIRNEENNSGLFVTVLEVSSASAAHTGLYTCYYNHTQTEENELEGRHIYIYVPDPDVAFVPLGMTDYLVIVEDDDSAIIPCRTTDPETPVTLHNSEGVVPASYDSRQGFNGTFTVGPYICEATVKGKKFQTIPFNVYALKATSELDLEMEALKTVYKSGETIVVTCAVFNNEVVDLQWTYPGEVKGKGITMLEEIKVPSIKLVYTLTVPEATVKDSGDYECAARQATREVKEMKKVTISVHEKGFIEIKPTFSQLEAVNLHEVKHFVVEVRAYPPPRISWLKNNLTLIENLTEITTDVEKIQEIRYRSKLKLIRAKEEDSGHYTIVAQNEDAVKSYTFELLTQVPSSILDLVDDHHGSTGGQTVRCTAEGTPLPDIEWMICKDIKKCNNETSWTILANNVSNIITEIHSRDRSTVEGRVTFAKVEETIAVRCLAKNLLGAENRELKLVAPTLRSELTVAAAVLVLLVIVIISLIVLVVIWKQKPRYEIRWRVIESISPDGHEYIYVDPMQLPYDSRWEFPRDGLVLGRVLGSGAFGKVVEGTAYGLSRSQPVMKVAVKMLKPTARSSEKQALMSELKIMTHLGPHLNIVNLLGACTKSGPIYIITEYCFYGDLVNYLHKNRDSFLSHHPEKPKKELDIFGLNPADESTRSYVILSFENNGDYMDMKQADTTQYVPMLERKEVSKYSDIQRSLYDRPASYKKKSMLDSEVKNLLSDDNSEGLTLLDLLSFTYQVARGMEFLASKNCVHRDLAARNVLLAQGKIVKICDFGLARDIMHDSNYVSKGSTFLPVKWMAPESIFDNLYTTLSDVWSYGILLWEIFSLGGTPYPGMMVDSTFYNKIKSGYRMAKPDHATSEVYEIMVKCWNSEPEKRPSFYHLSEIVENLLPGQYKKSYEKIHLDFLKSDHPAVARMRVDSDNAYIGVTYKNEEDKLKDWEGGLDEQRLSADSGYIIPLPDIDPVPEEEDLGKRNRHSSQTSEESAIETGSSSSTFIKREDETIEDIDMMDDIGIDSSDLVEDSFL
Kind of experiment: Scatchard analysis.

Experiment [6] deals with S. aureus protein A Sepharose CL-4B (S. aureus, UniProt P38507 37-477). Nature of the experiment: precipitation of 35S-labeled conditioned medium. The method, then: Cells were incubated in the presence of radiolabeled amino acids to examine the expression of the fusion proteins. […] The immunoprecipitated proteins were then analyzed by SDS-polyacrylamide gel electrophoresis (PAGE) and immunoprecipitated species were visualized after fluorography.
Isolated proteins were analyzed using SDS-PAGE.

The target in experiment [7] is T1, D2/3-HFc fusion protein. Kind of experiment: 50% displacement of 125I-KGF by unlabeled KGF, fusion protein captured on Gamma Bind G (Scatchard analysis). As to the method:
as §1, §2
The dissociation constant for each fusion protein was determined by measuring the concentrations of unlabeled ligand required for 50% displacement of radiolabeled ligand.

The target in experiment [8] is T3, immunoglobulin HFc. Kind of experiment: immunohistochemistry on normal human skin.

B1: bovine brain aFGF (ligand, UniProt P03968 16-155, looked up)
chain: FNLPLGNYKKPKLLYCSNGGYFLRILPDGTVDGTKDRSDQHIQLQLCAESIGEVYIKSTETGQFLAMDTDGLLYGSQTPNEECLFLERLEENHYNTYISKKHAEKHWFVGLKKNGRSKLGPRTHFGQKAILFLPLPVSSD
notes: also called radioiodinated bovine fibroblast growth factor (aFGF); 125I-aFGF
For B1, the results for the Kd in experiment [1] and in experiment [2] were 0.52 nM and 0.96 nM, respectively.

B2: PDGF BB (ligand, UniProt P01127 82-190, looked up)
chain: SLGSLTIAEPAMIAECKTRTEVFEISRRLIDRTNANFLVWPPCVEVQRCSGCCNNRNVQCRPTQVQLRPVQVRKIEIVRKKPIFKKATVTLEDHLACKCETVAAARPVT
notes: also called PDGF BB protein
On to B2, for which the binding result in experiment [3] was “no binding”.

B3: PDGF B-HFc fusion protein (Fc fusion, UniProt P01127 82-190, looked up)
chain: SLGSLTIAEPAMIAECKTRTEVFEISRRLIDRTNANFLVWPPCVEVQRCSGCCNNRNVQCRPTQVQLRPVQVRKIEIVRKKPIFKKATVTLEDHLACKCETVAAARPVTVPRDCGCKPCICTVPEVSSVFIFPPKPKDVLTITLTPKVTCVVVDISKDDPEVQFSWFVDDVEVHTAQTQPREEQFNSTFRSVSELPIMHQDWLNGKEFKCRVNSAAFPAPIEKTISKTKGRPKAPQVYTIPPPKEQMAKDKVSLTCMITDFFPEDITVEWQWNGQPAENYKNTQPIMNTNGSYFVYSKLNVQKSNWEAGNTFTCSVLHEGLHNHHTEKSLSHSPGK
notes: Expressed as an 84 kd dimeric protein
For the molecule B3, the results for the dissociation constant (Kd) in experiment [4] and in experiment [5] were 1.4 nM and 3.2 nM, respectively.

B4: PDGF A-HFc fusion protein (Fc fusion)
chain: not shown
notes: Expressed as an 84-89 kd dimeric protein
As for B4, the binding result in experiment [4] is “no binding”. This molecule yielded a Kd in experiment [5] of 1.3 nM.

B5: KGF-HFc fusion protein (Fc fusion, UniProt P21781 32-194, looked up)
chain: CNDMTPEQMATNVNCSSPERHTRSYDYMEGGDIRVRRLFCRTQWYLRIDKRGKVKGTQEMKNNYNIMEIRTVAVGIVAIKGVESEFYLAMNKEGKLYAKKECNEDCNFKELILENHYNTYASAKWTHNGGEMFVALNQKGIPVRGKKTKKEQKTAHFLPMAITVPRDCGCKPCICTVPEVSSVFIFPPKPKDVLTITLTPKVTCVVVDISKDDPEVQFSWFVDDVEVHTAQTQPREEQFNSTFRSVSELPIMHQDWLNGKEFKCRVNSAAFPAPIEKTISKTKGRPKAPQVYTIPPPKEQMAKDKVSLTCMITDFFPEDITVEWQWNGQPAENYKNTQPIMNTNGSYFVYSKLNVQKSNWEAGNTFTCSVLHEGLHNHHTEKSLSHSPGK
notes: Disulfide-linked dimer, p94-98 nonreduced, 48 kd reduced
In the case of B5, in experiment [6], the binding result is “binds”.

B6: keratinocyte growth factor (KGF) (ligand, human, UniProt P21781 32-194, looked up)
chain: CNDMTPEQMATNVNCSSPERHTRSYDYMEGGDIRVRRLFCRTQWYLRIDKRGKVKGTQEMKNNYNIMEIRTVAVGIVAIKGVESEFYLAMNKEGKLYAKKECNEDCNFKELILENHYNTYASAKWTHNGGEMFVALNQKGIPVRGKKTKKEQKTAHFLPMAIT
notes: also called recombinant human KGF; recombinant KGF
In experiment [7], B6 returned a Kd of 0.12 nM. Further, the binding result in experiment [8] is on record as “no binding”.

For orientation: Kd means the constant that tells how readily two partners part at equilibrium.
